Kd, koff and kon data for 1 molecule are collected here from patent CN113234143A.

For the assay, the target named is HBV表面抗原蛋白 (HBsAg) (Hepatitis B virus). The experiment in a line: SPR, Biacore 3000; 7E5 captured by AHC on a CM5 chip, HBsAg as analyte in 2-fold dilutions from 40 nM to 0 nM. For orientation: Surface plasmon resonance follows binding to a sensor surface in real time, without labels.

B1: 抗HBsAg单克隆抗体7E5 (antibody, V domains shown)
VH: EVQLQQSGPELVKPGASVKMSCKASGYTFTARGYNWVRQSHGKSLEWIGGINCRPTAMSPEDLVKDKATLTVDKSSNTVYMEFRSLTLEDSAIYFCARRECPINQGDYWGQGTIFTVSS
VL: EIVLTQSPALMAASPGEKVTITCGCARNTIWNNVGWYQQKSETSPKPWIYWASLFGKGVPVRFSGSGSGTSYSLTISSMEAEDAATYYCQDIQENWTPFGAGTKLELK
The term Kd denotes the equilibrium constant for the complex coming apart. A high value points to lower affinity. One may read the koff as the first-order rate constant of dissociation. Low readings indicate a long-lived complex, high ones a short-lived complex. The kon is a measure of how fast the partners come together. Low readings indicate slow association, high ones fast association. As to B1, the Kd turned out to be 21.5 nM, the koff came out at 0.000445 s⁻¹ and the on-rate (kon) worked out at 20700 M⁻¹ s⁻¹.
